# Test results reported in patent US20170224836A1 (Novartis, published 2017).
# Where a chain is given by its changes, count along the chain named.
# T1: human CDH6 on cells (human, UniProt P55285 54-790)
# T1 sequence: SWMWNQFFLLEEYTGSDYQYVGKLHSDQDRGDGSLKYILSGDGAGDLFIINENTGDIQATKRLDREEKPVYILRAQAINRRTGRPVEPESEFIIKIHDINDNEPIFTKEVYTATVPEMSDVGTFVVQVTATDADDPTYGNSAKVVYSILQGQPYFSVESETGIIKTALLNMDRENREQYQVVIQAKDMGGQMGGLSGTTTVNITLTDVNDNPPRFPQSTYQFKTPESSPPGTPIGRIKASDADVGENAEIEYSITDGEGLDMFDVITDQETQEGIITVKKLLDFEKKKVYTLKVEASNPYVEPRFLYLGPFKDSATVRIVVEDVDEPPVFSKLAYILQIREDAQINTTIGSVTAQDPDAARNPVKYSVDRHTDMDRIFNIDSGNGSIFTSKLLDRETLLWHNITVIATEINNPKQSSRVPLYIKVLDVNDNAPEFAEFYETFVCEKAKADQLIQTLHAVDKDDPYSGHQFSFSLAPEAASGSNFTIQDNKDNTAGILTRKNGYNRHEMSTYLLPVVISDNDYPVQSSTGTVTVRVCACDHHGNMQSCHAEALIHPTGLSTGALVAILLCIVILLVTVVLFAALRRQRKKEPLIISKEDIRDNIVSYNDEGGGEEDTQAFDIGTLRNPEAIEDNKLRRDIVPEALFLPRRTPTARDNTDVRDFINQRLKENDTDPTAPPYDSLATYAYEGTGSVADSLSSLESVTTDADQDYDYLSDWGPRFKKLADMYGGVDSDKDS
# B1: NOV0692-SMCC-DM1 (antibody, human IgG1, lambda, V domains shown)
# VH: QVQLVESGGGLVKPGGSLRLSCAASGFTFSRYWMDWVRQAPGKGLEWVGRIKSKANGGITDYAAPVKGRFTISRDDSKNTLYLQMNSLKTEDTAVYYCARGMTFLGIWGQGTLVTVSS
# VL: DIELTQPPSVSVSPGQTASITCSGDSIGSKYAQWYQQKPGQAPVLVIYYNSERPSGIPERFSGSNSGNTATLTISGTQAEDEADYYCQSWDGQSTIRVFGGGTKLTVLG
# modifications: SMCC-DM1 on primary amines, sites not stated
# B2: NOV0670-SMCC-DM1 (antibody, human IgG1, lambda, V domains shown)
# VH: QVQLVQSGAEVKKPGSSVKVSCKASGGTFSSYAISWVRQAPGQGLEWMGGIIPIFGTANYAQKFQGRVTITADESTSTAYMELSSLRSEDTAVYYCARKFPGRGPFAYWGQGTLVTVSS
# VL: DIVLTQPPSVSGAPGQRVTISCSGSSSNIGSQYVYWYQQLPGTAPKLLIYYNSERPSGMPDRFSGSKSGTSASLAITGLQAEDEADYYCQTWDASSQSFVFGGGTKLTVLG
# modifications: SMCC-DM1 on primary amines, sites not stated
# B3: NOV0682-SMCC-DM1 (antibody, human IgG1, kappa, V domains shown)
# VH: QVQLVESGGGLVKPGGSLRLSCAASGFTFSSYAISWVRQAPGKGLEWVGFIKSNADGYTTNYAAPVKGRFTISRDDSKNTLYLQMNSLKTEDTAVYYCARIRYFRNWDYWGQGTLVTVSS
# VL: DIQMTQSPSSLSASVGDRVTITCRASQTINSYLNWYQQKPGKAPKLLIYRASNLQSGVPSRFSGSGSGTDFTLTISSLQPEDFATYYCQQGDSSWTFGQGTKVEIKR
# modifications: SMCC-DM1 on primary amines, sites not stated
# B4: NOV0690-SMCC-DM1 (antibody, human IgG1, lambda, V domains shown)
# VH: QVQLLESGGGLVQPGGSLRLSCAASGFTFSDHAIDWVRQAPGKGLEWVSVIAGDGSITYYADSVKGRFTISRDNSKNTLYLQMNSLRAEDTAVYYCARDTGVYREYMDVWGQGTLVTVSS
# VL: DIELTQPPSVSVSPGQTASITCSGDAIGTKFAHWYQQKPGQAPVLVIYYDHERPSGIPERFSGSNSGNTATLTISGTQAEDEADYYCYSRASSNLVFGGGTKLTVLG
# modifications: SMCC-DM1 on primary amines, sites not stated
# B5: NOV0685-SMCC-DM1 (antibody, human IgG1, lambda, V domains shown)
# VH: QVQLQQSGPGLVKPSQTLSLTCAISGDSVSGNSAAWNWIRQSPSRGLEWLGIIYYRSKWYNDYAVSVKSRITINPDTSKNQFSLQLNSVTPEDTAVYYCARSSYSGGFDYWGQGTLVTVSS
# VL: DIVLTQPPSVSGAPGQRVTISCSGSSSNIGSYYVSWYQQLPGTAPKLLIYYNTKRPSGVPDRFSGSKSGTSASLAITGLQAEDEADYYCQSWDKLGKGYVFGGGTKLTVLG
# modifications: SMCC-DM1 on primary amines, sites not stated
# B6: NOV0693-SMCC-DM1 (antibody, human IgG1, kappa, V domains shown)
# VH: QVQLLESGGGLVQPGGSLRLSCAASGFTFSSYALHWVRQAPGKGLEWVSYIFYDSSSTYYADSVKGRFTISRDNSKNTLYLQMNSLRAEDTAVYYCARFLYSAYGVANWGQGTLVTVSS
# VL: DIQMTQSPSSLSASVGDRVTITCRASQSISFYLAWYQQKPGKAPKLLIYGASTLQSGVPSRFSGSGSGTDFTLTISSLQPEDFATYYCHQYSYWLRTFGQGTKVEIKR
# modifications: SMCC-DM1 on primary amines, sites not stated
# B7: NOV0695-SMCC-DM1 (antibody, human IgG1, kappa, V domains shown)
# VH: QVQLQQSGPGLVKPSQTLSLTCAISGDSVSSNSAAWNWIRQSPSRGLEWLGRIYYRSKWYNDYAVSVKSRITINPDTSKNQFSLQLNSVTPEDTAVYYCARERSYRDYFDYWGQGTLVTVSS
# VL: DIQMTQSPSSLSASVGDRVTITCRASQGIFTYLNWYQQKPGKAPKLLISAASTLQSGVPSRFSGSGSGTDFTLTISSLQPEDFATYYCQQYYSTSLTFGQGTKVEIKR
# modifications: SMCC-DM1 on primary amines, sites not stated
# B8: NOV0689-SMCC-DM1 (antibody, human IgG1, lambda, V domains shown)
# VH: QVQLLESGGGLVQPGGSLRLSCAASGFTFSSFAMNWVRQAPGKGLEWVSVISSSGSNTNYADSVKGRFTISRDNSKNTLYLQMNSLRAEDTAVYYCARPSYFQAMDYWGQGTLVTVSS
# VL: DIVLTQPPSVSGAPGQRVTISCSGSSSNIGSNFVSWYQQLPGTAPKLLIYDNSNRPSGVPDRFSGSKSGTSASLAITGLQAEDEADYYCSSYDSFDHSWVFGGGTKLTVLG
# modifications: SMCC-DM1 on primary amines, sites not stated
# B9: NOV0674-SMCC-DM1 (antibody, human IgG1, lambda, V domains shown)
# VH: QVQLLESGGGLVQPGGSLRLSCAASGFTFSSYAMTWVRQAPGKGLEWVSGISGGGSNTYYADSVKGRFTISRDNSKNTLYLQMNSLRAEDTAVYYCARGGGQYFDYWGQGTLVTVSS
# VL: DIVLTQPPSVSGAPGQRVTISCSGSSSNIGYNYVSWYQQLPGTAPKLLIYRDNQRPSGVPDRFSGSKSGTSASLAITGLQAEDEADYYCAAWTSGSIGWVFGGGTKLTVLG
# modifications: SMCC-DM1 on primary amines, sites not stated
# B10: NOV0713-SMCC-DM1 (antibody, human IgG1, lambda, V domains shown)
# VH: QVQLQQSGPGLVKPSQTLSLTCAISGDSVSSNSAAWNWIRQSPSRGLEWLGRIYYRSKWYNDYAVSVKSRITINPDTSKNQFSLQLNSVTPEDTAVYYCARGLVGRYGQPYHFDVWGQGTLVTVSS
# VL: DIELTQPPSVSVSPGQTASITCSGDNLRSYYVHWYQQKPGQAPVLVIYGNNKRPSGIPERFSGSNSGNTATLTISGTQAEDEADYYCGVYTLSSVVFGGGTKLTVLG
# modifications: SMCC-DM1 on primary amines, sites not stated
# B11: NOV0672-SMCC-DM1 (antibody, human IgG1, lambda, V domains shown)
# VH: QVQLLESGGGLVQPGGSLRLSCAASGFTFNTYGIHWVRQAPGKGLEWVSYIHYSGSSTYYADSVKGRFTISRDNSKNTLYLQMNSLRAEDTAVYYCARHAYGYMDFWGQGTLVTVSS
# VL: DIALTQPASVSGSPGQSITISCTGTSSDVGAYNYVSWYQQHPGKAPKLMIYGVSKRPSGVSNRFSGSKSGNTASLTISGLQAEDEADYYCQSYDHLLHVVFGGGTKLTVLG
# modifications: SMCC-DM1 on primary amines, sites not stated
# B12: NOV0709-SMCC-DM1 (antibody, human IgG1, lambda, V domains shown)
# VH: QVQLLESGGGLVQPGGSLRLSCAASGFTFSTYYMHWVRQAPGKGLEWVSVISSDGSFTFYADSVKGRFTISRDNSKNTLYLQMNSLRAEDTAVYYCARHGYGAFDYWGQGTLVTVSS
# VL: B11 VL with A31S, G52Y, K55N, Q91A, D94T, L96Q, L97G, H98S, V99W
# modifications: SMCC-DM1 on primary amines, sites not stated
# B13: NOV0691-SMCC-DM1 (antibody, human IgG1, lambda, V domains shown)
# VH: QVQLVESGGGLVKPGGSLRLSCAASGFTFSSYALNWVRQAPGKGLEWVGRIKSKTYGGSTDYAAPVKGRFTISRDDSKNTLYLQMNSLKTEDTAVYYCARDRGGYVGFDSWGQGTLVTVSS
# VL: B11 VL with A31R, Y34F, G52R, K55N, Y93W, D94T, H95T, L96Y, L97S, H98N
# modifications: SMCC-DM1 on primary amines, sites not stated
# B14: NOV0705-SMCC-DM1 (antibody, human IgG1, lambda, V domains shown)
# VH: QVQLVQSGAEVKKPGESLKISCKGSGYSFTNYWIGWVRQMPGKGLEWMGFIDPGVSYTRYSPSFQGQVTISADKSISTAYLQWSSLKASDTAMYYCARVLAHSTEYNWPAFWGQGTLVTVSS
# VL: DIVLTQPPSVSGAPGQRVTISCSGSSSNIGLDYVNWYQQLPGTAPKLLIYRNKQRPSGVPDRFSGSKSGTSASLAITGLQAEDEADYYCQAWAGRTNYVVFGGGTKLTVLG
# modifications: SMCC-DM1 on primary amines, sites not stated
# Molecular target: T1, human CDH6 on cells
# Test: cell-based or functional assay
Binder,"percent inhibition at 1.22 nM ADC, JHOS4 cells [%]","percent inhibition at 1.22 nM ADC, KNS42 cells [%]","percent inhibition at 1.22 nM ADC, NCIH661 cells [%]","percent inhibition at 1.22 nM ADC, OVCAR3 cells [%]","percent inhibition at 1.22 nM ADC, SNU8 cells [%]"
B1,62.3,57.3,14.8,88,15.7
B2,-27.9,-18.6,5.14,-30,-15.6
B3,33.9,23.8,16.4,61.8,10.8
B4,51,56.8,14.6,84.8,18.4
B5,-14.7,-14.7,2.08,-20.6,-0.1
B6,58.1,15.2,25.9,85.7,35.6
B7,66.9,66.3,18.7,89,21.6
B8,3.63,-3.11,-0.53,7.21,10.3
B9,-11.9,-6.82,3.9,-10.3,-1.42
B10,-6.22,-17.3,-9.74,-3.55,7.79
B11,-23,-12.3,-6.14,-16.2,-10.9
B12,4.5,-4.2,5.91,46.9,-7.7
B13,-14.4,-9.23,-10.5,-1.5,-2.56
B14,40.4,-13.3,-3.15,68.6,6.4
